Source: patent US20230174599A1 (University of California, published 2023)
Several values for one entry are separate records, joined by “and”; a condition that tells them apart may be missing. Identical values can stand only once. Like-named read-outs stand apart in the source and are kept apart here.

Tests used:
SARS-CoV-2 Spike RBD [1] = biological target: T1, SARS-CoV-2 Spike RBD (SARS-CoV-2, UniProt P0DTC2 319-541)
T1 construct: domain: RBD; also called single RBDs; Spike RBD proteins

SARS-CoV-2 Spike RBD [2] = biological target: T1, SARS-CoV-2 Spike RBD; remark: listed apart in the source
SARS-CoV-2 Spike RBD [3] = biological target: T1, SARS-CoV-2 Spike RBD
SARS-CoV-2 Spike RBD [4] = biological target: T1, SARS-CoV-2 Spike RBD; remark: listed apart in the source

B1: RiAFP-HTH.2 (designed binder)
chain: ASRAEARGEAMAEGHSRGSATSHANATGHADARSMSEGNAEAYTEAKGDAMATSEASGEARAQTNADGSAHSSSRTHGRADSTASAKGGKALNDKEAKNKAILNLEEIEEQAKTFLDKFNHEAEDLFYQSSLASWNYNTNITEENVQNMNNAGDKWSAFLKEQSTLAQMYQNEIKRKSEKQEDLKKEMLELEKLGGAMAEGTSDGDAKSYASADGNASAKSMSTGHADATTNAHGTAMADSNAIGEARAETRAEGRAESSSDTDGS
notes: also called mBSP-HTH.2; RiAFP-.2
Q: Which Kd (SARS-CoV-2 Spike RBD [1]) does the source give for B1 here?
A: 2.1 to 28 nM

Q: What about the Kd (SARS-CoV-2 Spike RBD [2]) of the same binder?
A: 2.1 nM

Q: What about the Kd (SARS-CoV-2 Spike RBD [3]) of the same binder?
A: ≥ 41 nM and ≤ 84 nM and 28 nM

B2: polymeric RiAFP-HTH.2 fixed to nitrocellulose (designed binder)
chain: B1 chain
Q: What does the source list for B2?
A: Kd (SARS-CoV-2 Spike RBD [4]): 0.006 to 0.009 nM and ≤ 0.01 nM; koff (SARS-CoV-2 Spike RBD [4]): 6e-07 to 9e-07 s⁻¹

B3: RiAFP-HTH.1 (designed binder)
chain: ASRAEARGEAMAEGHSRGSATSHANATGHADARSMSEGNAEAYTEAKGDAMATSEASGEARAQTNADGSAHSSSRTHGRADSTASAKTNYNRECGEEQAKTFLDKFNHEAEDLFYQSSLASWNYNTNITEENVQNRNNAGDKRSAFLKEQSTLAQMYGCGSGSAMAEGTSDGDAKSYASADGNASAKSMSTGHADATTNAHGTAMADSNAIGEARAETRAEGRAESSSDTDGS
notes: also called mBSP-HTH.1; RiAFP-HTH.1 construct
Q: B3 was tested. Which Kd (SARS-CoV-2 Spike RBD [1]) did it give?
A: 0.7 to 1.6 nM
